Laboratory results reported in patent US20150118725A1 (GLOBAL BIOENERGIES, priority 2012, published 2015).

Experiments:
[1] = test system: Streptococcus mitis MDP decarboxylase (strain B6, SEQ ID NO: 10); assay: Phosphotransferase activity on mevalonate (pyruvate kinase/lactate dehydrogenase coupled ADP assay); type: biochemical; conditions: 40° C., pH 7.5, 5 mM ATP, 0 to 5 mM R,S-sodium mevalonate
From the text: (§1) 1.5 U/ml Lactate dehydrogenase
(§2) The pH was adjusted to 7.5.

[2] = Complementation assay: Th. acidophilum MDP decarboxylase (mutant L200E) with each tested MDP decarboxylase, isoprenol by GC-FID; type: biochemical; conditions: 0.01 mg Th. acidophilum (L200E) enzyme + 0.5 mg tested enzyme in 0.1 ml, 200 mM mevalonate, 37° C., 24 h (FIG. 7)
Protocol: MDP decarboxylases were evaluated using a complementation assay. Th. acidophilum MDP decarboxylase (mutant L200E) was incubated together with each tested enzyme from the library.
The combined enzymatic assay was carried out under the following conditions:
The pH was adjusted to 7.5
0.01 mg of the Th. acidophilum enzyme and 0.5 mg of the MDP decarboxylase to be tested were added to 0.1 ml of reaction mixture. Reaction mixture containing only […] of the Th. acidophilum MDP decarboxylase (L200E) was used as reference. The assays were incubated without shaking at 37° C. for 24 h in a sealed vial (Interchim). The isoprenol production was analyzed as follows. An aliquot of 50 μl of liquid phase was removed and mixed with 100 μl of ethyl acetate. 100 μl of the upper ethyl acetate phase was transferred to a clean vial for analysis by gas chromatography. Commercial isoprenol was used as reference. The samples were analyzed on a Varian GC-430 gas chromatograph equipped with a flame ionization detector (FID). […] The retention time of isoprenol in these conditions was 7.38 min.

[3] = Combined enzymatic assay: Th. acidophilum (L200E) and S. mitis MDP decarboxylases, isoprenol by GC; type: biochemical; conditions: 0 to 0.4 mg S. mitis enzyme with 0.01 mg Th. acidophilum (L200E) in 0.1 ml, 37° C., 24 h (FIG. 10)
Protocol: 0.01 mg of purified MDP decarboxylase from Th. acidophilum (mutant L200E) and 0.2 mg of purified MDP decarboxylase from S. mitis were added to 0.1 ml of reaction mixture. Control reactions were performed in which either no enzyme was added, or no ATP was added.
To validate the combined action of two enzymes, a series of additional controls were carried out. In one assay, MDP decarboxylase from S. mitis (0.21 mg) was the only enzyme using as the catalyst. In the other experiment, 0.21 mg of the Th. acidophilum (L200E) enzyme was added, lacking S. mitis decarboxylase. The assays were incubated in a sealed vial (Interchim) without shaking for 24 hours at 37° C. Isoprenol extraction and analysis were performed according to the procedure described in Example 4.
The effect of S. mitis MDP decarboxylase concentration was assessed under the following conditions:
0.01 mg of purified MDP decarboxylase from Th. acidophilum (mutant L200E) and a varying amount (from 0 to 0.4 mg) of purified MDP decarboxylase from S. mitis were added to 0.1 ml of reaction mixture. The mixtures were then incubated without shaking at 37° C. for 24 h in a sealed vial. Isoprenol extraction and analysis were performed according to the procedure described in Example 4.

[4] = Phosphotransferase activity: ADP release in the pyruvate kinase/lactate dehydrogenase coupled assay; type: biochemical; conditions: 40° C., pH 7.5
From the text: as §1, §2

[5] = substrate: CC(O)(CCO)CC(=O)O; assay: purified protein, by the assay type; type: biochemical, Thermoplasma acidophilum; conditions: other: 40° C., pH 7.5, 5 mM ATP, 0 to 5 mM R,S-sodium mevalonate
From the text: as §1, §2

CC(O)(CCO)CC(=O)O (stereo not drawn) [mevalonate]
Km [1]: 200 µM
kcat [1]: 0.002 s⁻¹

B1: S. cerevisiae MDP decarboxylase: MDP decarboxylase of Saccharomyces cerevisiae, SEQ ID NO: 22 (protein, listed as Saccharomyces cerevisiae)
chain: MTVYTASVTAPVNIATLKYWGKRDTKLNLPTNSSISVTLSQDDLRTLTSAATAPEFERDTLWLNGEPHSIDNERTQNCLRDLRQLRKEMESKDASLPTLSQWKLHIVSENNFPTAAGLASSAAGFAALVSAIAKLYQLPQSTSEISRIARKGSGSACRSLFGGYVAWEMGKAEDGHDSMAVQIADSSDWPQMKACVLVVSDIKKDVSSTQGMQLTVATSELFKERIEHVVPKRFEVMRKAIVEKDFATFAKETMMDSNSFHATCLDSFPPIFYMNDTSKRIISWCHTINQFYGETIVAYTFDAGPNAVLYYLAENESKLFAFIYKLFGSVPGWDKKFTTEQLEAFNHQFESSNFTARELDLELQKDVARVILTQVGSGPQETNESLIDAKTGLPKE
isoprenol production in combined assay [2]: highest production of isoprenol

B2: Streptococcus mitis: MDP decarboxylase from Streptococcus mitis (strain B6), SEQ ID NO: 10 (protein)
chain: MDREPVTVRSYANIAIIKYWGKKKEKEMVPATSSISLTLENMYTETTLSSLPTDATADAFYINGQLQNEAEHVKMSKIIDRYRPDGDGFVRIDTQNSMPTAAGLSSSSSGLSALVKACNAYFKLGLNRSQLAQEAKFASGSSSRSFYGPLGAWDKDSGEIYPVETGLKLAMIMLVLEDKKKPISSRDGMKLCVETSTTFDDWVRQSEKDYQDMLVYLKANDFAKVGELTEKNALAMHATTKTASPAFSYLTDASYEAMDFVRQLREQGEACYFTMDAGPNVKVLCQEKDLEHLSEIFGQRYRLIVSKTKDLSQDGCC
modifications: Streptococcus mitis (strain B6)
effect of enzyme concentration on amount of produced isoprenol [3]: increase of the amount of produced isoprenol
phosphotransferase activity (ADP production in the presence of mevalonate) [4]: reproducible increase in ADP production
isoprenol production in combined assay [2]: highest production of isoprenol

B3: Thermoplasma acidophilum MDP decarboxylase mutant L200E (SEQ ID NO: 16) (Thermoplasma acidophilum DSM 1728; L200E) (protein)
chain: MLHHHHHHTYRSIGSTAYPTIGVVLLGGIANPVTRTPLHTSAGIAYSDSCGSIRSETRIYADEATHIYFNGTESTDDNRSVRRVLDRYSSVFEEAFGTKTVSYSSQNFGILSGSSDAGAASIGAAILGLKPDLDPHDVENDLRAVSESAGRSLFGGLTITWSDGFHAYTEKILDPEAFSGYSIVAFAFDYQRNPSDVIHQNIVRSDEYPARKKHADEHAHMIKEYAKTNDIKGIFDLAQEDTEEYHSILRGVGVNVIRENMQKLISYLKLIRKDYWNAYIVTGGSNVYVAVESENADRLFSIENTFGSKKKMLRIVGGAWHRRPE
Km [5]: 0.50 mM
kcat [5]: 2.5 s⁻¹
kcat/Km [5]: 5000 M⁻¹ s⁻¹
